Assay results reported in patent US20200062842A1.

Tests used:
[1] = molecular target: human MUC1 on the surface of MUC1 expressing tumor cells (human) (UniProt P15941); test: FACS, bone marrow aspirate of MM patient P #I
[2] = molecular target: human MUC1 on the surface of MUC1 expressing tumor cells (human) (UniProt P15941); test: FACS, bone marrow aspirate of MM patient P #3
[3] = molecular target: human MUC1 on the surface of MUC1 expressing tumor cells (human) (UniProt P15941); test: FACS, bone marrow aspirate of MM patient P #II
[4] = molecular target: human MUC1 on the surface of MUC1 expressing tumor cells (human) (UniProt P15941); test: flow cytometry, FITC-conjugated antibody, MCF7 cells; cell looks truncated
[5] = molecular target: human MUC1 on the surface of MUC1 expressing tumor cells (human) (UniProt P15941); test: flow cytometry, FITC-conjugated antibody, Raji cells; cell looks truncated
[6] = molecular target: human MUC1 on the surface of MUC1 expressing tumor cells (human) (UniProt P15941); test: flow cytometry, FITC-conjugated antibody, U266 cells; cell looks truncated
[7] = molecular target: human MUC1 on the surface of MUC1 expressing tumor cells (human) (UniProt P15941); test: flow cytometry, FITC-conjugated antibody, ARH-77 cells; cell looks truncated
[8] = molecular target: human MUC1 on the surface of MUC1 expressing tumor cells (human) (UniProt P15941); test: flow cytometry, FITC-conjugated antibody, MDA-231 cells; cell looks truncated
[9] = molecular target: human MUC1 on the surface of MUC1 expressing tumor cells (human) (UniProt P15941); test: flow cytometry, FITC-conjugated antibody, MDA-453 cells; cell looks truncated
[10] = molecular target: human MUC1 on the surface of MUC1 expressing tumor cells (human) (UniProt P15941); test: flow cytometry, FITC-conjugated antibody, OVCAR-3 cells; cell looks truncated
[11] = molecular target: human MUC1 on the surface of MUC1 expressing tumor cells (human) (UniProt P15941); test: flow cytometry, FITC-conjugated antibody, RPMI8226 cells; cell looks truncated
[12] = molecular target: human MUC1 on the surface of MUC1 expressing tumor cells (human) (UniProt P15941); test: flow cytometry, FITC-conjugated antibody, MCF7 cells; negative control
[13] = molecular target: human MUC1 on the surface of MUC1 expressing tumor cells (human) (UniProt P15941); test: flow cytometry, FITC-conjugated antibody, Raji cells; negative control
[14] = molecular target: human MUC1 on the surface of MUC1 expressing tumor cells (human) (UniProt P15941); test: flow cytometry, FITC-conjugated antibody, U266 cells; negative control
[15] = molecular target: human MUC1 on the surface of MUC1 expressing tumor cells (human) (UniProt P15941); test: flow cytometry, FITC-conjugated antibody, Ramos cells; negative control
[16] = molecular target: human MUC1 on the surface of MUC1 expressing tumor cells (human) (UniProt P15941); test: flow cytometry, FITC-conjugated antibody, ARH-77 cells; negative control
[17] = molecular target: human MUC1 on the surface of MUC1 expressing tumor cells (human) (UniProt P15941); test: flow cytometry, FITC-conjugated antibody, MDA-231 cells; negative control
[18] = molecular target: human MUC1 on the surface of MUC1 expressing tumor cells (human) (UniProt P15941); test: flow cytometry, FITC-conjugated antibody, MDA-453 cells; negative control
[19] = molecular target: human MUC1 on the surface of MUC1 expressing tumor cells (human) (UniProt P15941); test: flow cytometry, FITC-conjugated antibody, OVCAR-3 cells; negative control
[20] = molecular target: human MUC1 on the surface of MUC1 expressing tumor cells (human) (UniProt P15941); test: flow cytometry, FITC-conjugated antibody, RPMI8226 cells; negative control

Sequence of UniProt P15941 (P15941 24-1255): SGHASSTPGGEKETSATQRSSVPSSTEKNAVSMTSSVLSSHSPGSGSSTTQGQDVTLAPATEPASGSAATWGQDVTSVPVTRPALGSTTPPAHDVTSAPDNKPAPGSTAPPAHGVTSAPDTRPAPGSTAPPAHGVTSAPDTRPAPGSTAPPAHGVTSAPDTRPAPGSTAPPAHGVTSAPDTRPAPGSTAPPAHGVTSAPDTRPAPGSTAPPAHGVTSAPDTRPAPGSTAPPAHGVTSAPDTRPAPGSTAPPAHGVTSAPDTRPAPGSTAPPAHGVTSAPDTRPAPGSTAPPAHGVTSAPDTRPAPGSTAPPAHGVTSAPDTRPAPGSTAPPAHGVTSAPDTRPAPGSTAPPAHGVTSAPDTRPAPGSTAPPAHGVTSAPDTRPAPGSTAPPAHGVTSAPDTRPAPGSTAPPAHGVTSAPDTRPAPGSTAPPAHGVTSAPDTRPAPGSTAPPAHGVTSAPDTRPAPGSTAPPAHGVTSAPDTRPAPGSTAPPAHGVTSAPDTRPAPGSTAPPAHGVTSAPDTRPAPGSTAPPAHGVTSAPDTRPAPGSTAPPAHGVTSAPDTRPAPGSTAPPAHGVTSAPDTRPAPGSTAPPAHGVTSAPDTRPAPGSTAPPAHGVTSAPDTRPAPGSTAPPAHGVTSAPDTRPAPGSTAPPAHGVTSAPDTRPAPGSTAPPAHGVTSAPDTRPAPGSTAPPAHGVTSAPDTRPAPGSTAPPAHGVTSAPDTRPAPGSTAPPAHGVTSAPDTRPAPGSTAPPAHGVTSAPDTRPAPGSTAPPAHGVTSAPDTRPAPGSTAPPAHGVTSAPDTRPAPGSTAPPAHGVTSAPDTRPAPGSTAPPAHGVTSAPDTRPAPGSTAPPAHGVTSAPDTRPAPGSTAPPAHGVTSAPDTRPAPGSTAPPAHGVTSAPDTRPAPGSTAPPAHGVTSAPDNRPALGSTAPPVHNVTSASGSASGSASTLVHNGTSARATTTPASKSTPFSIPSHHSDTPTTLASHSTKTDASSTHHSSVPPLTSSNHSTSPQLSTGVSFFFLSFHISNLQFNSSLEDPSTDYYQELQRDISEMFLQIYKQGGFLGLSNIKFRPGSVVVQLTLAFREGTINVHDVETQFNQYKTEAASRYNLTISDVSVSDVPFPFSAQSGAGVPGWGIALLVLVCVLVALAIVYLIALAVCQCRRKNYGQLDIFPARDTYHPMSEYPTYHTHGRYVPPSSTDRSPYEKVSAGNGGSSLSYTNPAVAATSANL

% of CD138 positive cells immunoreactive [1] | % of cells immunoreactive [2] | % of CD138 positive cells immunoreactive [3] | geometric mean (FACS) [4] | geometric mean (FACS) [5] | geometric mean (FACS) [6] | geometric mean (FACS) [7] | geometric mean (FACS) [8] | geometric mean (FACS) [9] | geometric mean (FACS) [10] | geometric mean (FACS) [11] | geometric mean (FACS) [12] | geometric mean (FACS) [13] | geometric mean (FACS) [14] | geometric mean (FACS) [15] | geometric mean (FACS) [16] | geometric mean (FACS) [17] | geometric mean (FACS) [18] | geometric mean (FACS) [19] | geometric mean (FACS) [20] | Substance
78.3% | 0.37% | 59.2% | 4 | 3 | 39 | 68 | 66 | 80 | 456 | 585 |  |  |  |  |  |  |  |  |  | H23 anti-MUC1 TRA monoclonal antibody
 |  |  |  |  |  |  |  |  |  |  | 230 | 131 | 485 | 198 | 176 | 245 | 182 | 370 | 745 | Mouse control (species-specific isotype control, FITC conjugated) (antibody)
 |  |  |  |  |  |  |  |  |  |  | 236 | 128 | 471 | 111 | 161 | 215 | 165 | 418 | 738 | Rabbit control (species-specific isotype control, FITC conjugated) (antibody)
